According to the RNAGym collection of RNA variant scans (doi:10.1093/nar/gkz1192):

B1: CPEB3 Ribozyme (parent)
chain: UAACAGGGGGCCACAGCAGAAGCGUUCACGUCGCAGCCCCUGUCAGAUUCUGGUGAAUCUGCGAAUUCUGCUGUAUAUCUC

Variants of: B1
Test: self-cleavage, relative activity (ratio to wild type); higher = more cleavage; in vitro, sequencing
Outline: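 CPEB3 self-cleaving ribozyme mutant libraries were made by rounds of error-prone PCR, barcoded, and transcribed in vitro with T7 RNA polymerase for 5 hours at 37°C. Cleavage occurred during transcription and a 15 min DNase I step before EDTA stop. RNAs were reverse transcribed with template switching and Illumina-sequenced, with DNA sequencing mapping barcodes to variants. Relative activity is the variant's cleaved/total read fraction divided by wild type's (minimum 5 reads), averaged across three batches.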

Compared with UAACAGGGGGCCACAGCAGAAGCGUCCACGUCGCAGCCCCUGUCAGAUUCUGGUGAAUCUGCGAAUUCUGCUGUAUAUCCC [U26C U80C], UAACAGGGGGCCACAGCAGAAGCGUCCACGUCGCAGCCCCUGUCAGAUUCUGGUGAAUCUGCGAAUUCUGCUGUAUAUCAC [U26C U80A] is lower in self-cleavage: 0.56 for the first, 0.51 for the second.

Going from UAACAGGGGGCCACAGCAGAAGCGUCCACGUCGCAGCCCCUGUCAGAUUCUGGUGAAUCUGCGAAUUCUGCUGUAUAUCGC [U26C U80G] to UAACAGGGGGCCACAGCAGAAGCGUGCACGUCGCAGCCCCUGUCAGAUUCUGGUGAAUCUGCGGAUUCUGCUGUAUAUCUC [U26G A64G], the self-cleavage falls from 0.54 to 0.25.

First: UAACAGGGGGCCACAGCAGAAGCGUGCACGUCGCAGCCCCUGUCAGAUUCUGGUGAAUCUGCGAAUUCUGCUGUAUGUCUC [U26G A77G]
Second: UAACAGGGGGCCACAGCAGAAGCGUGCACGUCGCAGCACCUGUCAGAUUCUGGUGAAUCUGCGAAUUCUGCUGUAUAUCUC [U26G C38A]
The self-cleavage of the first is lower: 0.34 for the first, 0.58 for the second.

First: UAACAGGGGGCCACAGCAGAAGCGUGCACGUCGCAGCCCCUGUAAGAUUCUGGUGAAUCUGCGAAUUCUGCUGUAUAUCUC [U26G C44A]
Second: UAACAGGGGGCCACAGCAGAAGCGUGCACGUCGCAGCCCCUGUCCGAUUCUGGUGAAUCUGCGAAUUCUGCUGUAUAUCUC [U26G A45C]
The self-cleavage of the first is higher: 0.25 for the first, 0.09 for the second.

UAACAGGGGGCCACAGCAGAAGCGUGCACGUCGCAGCCCCUGUCUGAUUCUGGUGAAUCUGCGAAUUCUGCUGUAUAUCUC [U26G A45U] and UAACAGGGGGCCACAGCAGAAGCGUGCACGUCGCAGCCCCUGUCGGAUUCUGGUGAAUCUGCGAAUUCUGCUGUAUAUCUC [U26G A45G] are the same in self-cleavage: 0.17 for the first, 0.17 for the second.

Compared with UAACAGGGGGCCACAGCAGAAGCGUGCACGUCGGAGCCCCUGUCAGAUUCUGGUGAAUCUGCGAAUUCUGCUGUAUAUCUC [U26G C34G], UAACAGGGGGCCACAGCAGAAGCGUCCACGUCGCAGCCCCUGUCAGAUUCUGGUGAAUCUGCGAAUUCUGCGGUAUAUCUC [U26C U72G] is higher in self-cleavage: 0.07 for the first, 0.41 for the second.

Compared with UAACAGGGGGCCACAGCAGAAGCGUGCACGUCGCAGCCCCUGUCAGAUUCUGGUGUAUCUGCGAAUUCUGCUGUAUAUCUC [U26G A56U], UAACAGGGGGCCACAGCAGAAGCGUGCACGUCGCAGCCCCUGUCAGAUUCUGGUGGAUCUGCGAAUUCUGCUGUAUAUCUC [U26G A56G] is higher in self-cleavage: 0.1 for the first, 0.24 for the second.

Going from UAACAGGGGGCCACAGCAGAAGCGUGCACGUCGCAGCCCCUGUCAGAUUCUGGUGAAUCUGCGAAUUUUGCUGUAUAUCUC [U26G C68U] to UAACAGGGGGCCACAGCAGAAGCGUGCACGUCGCAGCCCCUGUCAGGUUCUGGUGAAUCUGCGAAUUCUGCUGUAUAUCUC [U26G A47G], the self-cleavage rises from 0.35 to 0.39.

First: UAACAGGGGGCCACAGCAGAAGCGUGCACGUCGCAGCCCCUGUCAGAUUCUGGUGAGUCUGCGAAUUCUGCUGUAUAUCUC [U26G A57G]
Second: UAACAGGGGGCCACAGCAGAAGCGUGCACGUCGCGGCCCCUGUCAGAUUCUGGUGAAUCUGCGAAUUCUGCUGUAUAUCUC [U26G A35G]
The self-cleavage of the first is lower: 0.27 for the first, 0.8 for the second.

Going from UAACAGGGGGCCACAGCAGAAGCGUGCACGUCGCUGCCCCUGUCAGAUUCUGGUGAAUCUGCGAAUUCUGCUGUAUAUCUC [U26G A35U] to UAACAGGGGGCCACAGCAGAAGCGUCCACGUCGCAGCCCCUGUCAGAUUCUGGUGAAUCUGCGAAUUCUGCUGUAUAACUC [U26C U78A], the self-cleavage rises from 0.13 to 0.51.

Compared with UAACAGGGGGCCACAGCAGAAGCGUCCACGUCGCAGCCCCUGUCAGAUUCUGGUGAAUCUGCGAAUUCUGCUGUAUACCUC [U26C U78C], UAACAGGGGGCCACAGCAGAAGCGUCCACGUCGCAGCCCCUGUCAGAUUCUGGUGAAUCUGCGAAUUCUGCUGUAGAUCUC [U26C U76G] is higher in self-cleavage: 0.42 for the first, 0.55 for the second.

Compared with UAACAGGGGGCCACAGCAGAAGCGUCCACGUCGCAGCCCCUGUCAGAUUCUGGUGAAUCUGCGAAUUCUGCUGUAAAUCUC [U26C U76A], UAACAGGGGGCCACAGCAGAAGCGUCCACGUCGCAGCCCCUGUCAGAUUCUGGUGAAUCUGCGAAUUCUGCUGUACAUCUC [U26C U76C] is lower in self-cleavage: 0.53 for the first, 0.52 for the second.

Going from UAACAGGGGGCCACAGCAGAAGCGUGCACGUCGCAGCCCCUGUCAGAUUCUGGUGAAUCUGCGAAUUCUGCUGUGUAUCUC [U26G A75G] to UAACAGGGGGCCACAGCAGAAGCGUGCACGUCGCAGCCCCUGUCAGAUUCUGGUGAAUCUGCGAGUUCUGCUGUAUAUCUC [U26G A65G], the self-cleavage rises from 0.16 to 0.35.

Going from UAACAGGGGGCCACAGCAGAAGCGUGCACGUCGCAGCCCCUGUCAGAUUCUGGUGAAUCUGCGAUUUCUGCUGUAUAUCUC [U26G A65U] to UAACAGGGGGCCACAGCAGAAGCGUGCACGUCGCAGCCCCUGUCAGAUUCUGGUGAAUCUGCGAAUUCUGCUGUAUAUCUC [U26G], the self-cleavage rises from 0.15 to 0.31.

First: UAACAGGGGGCCACAGCAGAAGCGUCCACGUCGCAGCCCCUGUCAGAUUCUGGUGAAUCUGCGAAUUCUGCUGAAUAUCUC [U26C U74A]
Second: UAACAGGGGGCCACAGCAGAAGCGUCCACGUCGCAGCCCCUGUCAGAUUCUGGUGAAUCUGCGAAUUCUGCUGCAUAUCUC [U26C U74C]
The self-cleavage of the first is lower: 0.73 for the first, 0.79 for the second.

First: UAACAGGGGGCCACAGCAGAAGCGUCCACGUCGCAGCCCCUGUCAGAUUCUGGUGAAUCUGCGAAUUCUGCUGGAUAUCUC [U26C U74G]
Second: UAACAGGGGGCCACAGCAGAAGCGUGCACGUCGCAGCCCCUGUCAGAUUCUGGUGAAUCUGAGAAUUCUGCUGUAUAUCUC [U26G C62A]
The self-cleavage of the first is higher: 0.78 for the first, 0.13 for the second.

First: UAACAGGGGGCCACAGCAGAAGCGUGCACGUCGCAGCCCCUGUCAGAUUCUGGUGAAUAUGCGAAUUCUGCUGUAUAUCUC [U26G C59A]
Second: UAACAGGGGGCCACAGCAGAAGCGUGUACGUCGCAGCCCCUGUCAGAUUCUGGUGAAUCUGCGAAUUCUGCUGUAUAUCUC [U26G C27U]
The self-cleavage of the first is lower: 0.16 for the first, 0.63 for the second.
